Earlier results as cited in paper PMC10276003.

Molecular target: GRB2 (Homo sapiens) (UniProt P62993)

Chain of GRB2 (P62993 whole entry): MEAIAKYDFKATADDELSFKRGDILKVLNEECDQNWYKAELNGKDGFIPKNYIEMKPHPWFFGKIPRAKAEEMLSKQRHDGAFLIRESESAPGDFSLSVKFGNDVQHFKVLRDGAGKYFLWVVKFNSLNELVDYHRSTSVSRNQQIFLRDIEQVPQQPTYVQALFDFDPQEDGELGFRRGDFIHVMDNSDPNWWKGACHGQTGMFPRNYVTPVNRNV

GRB2 (from UniProt P62993)
Kd: 700 nM
